This note sets out measurements from patent US6953577B2, “Human methionine aminopeptidase type 3” (Pharmacia Corporation, priority 1999, dated 2005).

Substrate in data set [1]: CSCC[C@H](N)C(=O)N[C@@H](C)C(=O)N[C@@H](CO)C(=O)O
Kind of data set: Methionine aminopeptidase activity assay (methionine release from tripeptide, coupled L-amino acid oxidase/Amplex Red). In kind it is biochemical, human. The conditions noted are these: other: hydrolysis of methionine from MAS peptide substrate; pH 7.5.

Substrate in data set [2]: CSCC[C@H](N)C(=O)N[C@@H](C)C(=O)N[C@@H](CO)C(=O)O
Kind of data set: purified protein, by the assay type. The conditions noted are these: other: hydrolysis of methionine from MAS peptide substrate; pH 7.5.

B1: recombinant human MetAP-3 (Homo sapiens) (protein)
chain: SSPLNHIYLHKQSSSQQRRNFFFRRQRDISHSIVLPAAVSSAHPVPKHIKKPDYVTTGIVPDWGDSIEVKNEDQIQGLHQACQLARHVLLLAGKSLKVDMTTEEIDALVHREIISHNAYPSPLGYGGFPKSVCTSVNNVLCHGIPDSRPLQDGDIINIDVTVYYNGYHGDTSETFLVGNVDECGKKLVEVARRCRDEAIAACRAGAPFSVIGNTISHITHQNGFQVCPHFVGHGIGSYFHGHPEIWHHANDSDLPMEEGMAFTIEPIITEGSPEFKVLEDAWTVVSLDNQRSAQFEHTVLITSRGAQILTKLPHEA
notes: The coding region of hMetAP-3 was also cloned into the EcoRI/HindIII sites of the pET43a vector and expressed as a fusion protein; NusA (N, cleaved yes); 6xHis (N, cleaved yes); made in house; host or cells: E. coli Tuner (DE3)plysS, pET43a
The term Km denotes the substrate concentration at which the rate is half of its maximum. The kcat is the maximal rate divided by the concentration of active sites. B1: in data set [1], the Km was found to be 600 µM and the kcat stood at 0.06 s⁻¹.

B2: recombinant human MetAP-2 (Homo sapiens) (protein)
chain: MAGVEEVAASGSHLNGDLDPDDREEGAASTAEEAAKKKRRKKKKSKGPSAAGEQEPDKESGASVDEVARQLERSALEDKERDEDDEDGDGDGDGATGKKKKKKKKKRGPKVQTDPPSVPICDLYPNGVFPKGQECEYPPTQDGRTAAWRTTSEEKKALDQASEEIWNDFREAAEAHRQVRKYVMSWIKPGMTMIEICEKLEDCSRKLIKENGLNAGLAFPTGCSLNNCAAHYTPNAGDTTVLQYDDICKIDFGTHISGRIIDCAFTVTFNPKYDTLLKAVKDATNTGIKCAGIDVRLCDVGEAIQEVMESYEVEIDGKTYQVKPIRNLNGHSIGQYRIHAGKTVPIVKGGEATRMEEGEVYAIETFGSTGKGVVHDDMECSHYMKNFDVGHVPIRLPRTKHLLNVINENFGTLAFCRRWLDRLGESKYLMALKNLCDLGIVDPYPPLCDIKGSYTAQFEHTILLRPTCKEVVSRGDDY
Take B2: in data set [2], the Km turned out to be 300 µM and the kcat was 2.3 s⁻¹.
